± gives the uncertainty stated by the source.
B1: POU domain, class 4, transcription factor 2, residues 256 to 327; numbered along this chain, Q12837 (parent)
chain: RDLEAFAERFKQRRIKLGVTQADVGSALANLKIPGVGSLSQSTICRFESLTLSHNNMIALKPILQAWLEEAE

Variants of: B1
Test: abundance fitness (aPCA) (normalised: wild type 0, dead -1); higher = more abundant; growth selection in yeast, the domain comes from the species named
Details: Homo sapiens

Row | Variant | abundance fitness
1 | N56A | -0.041 ± 0.094
2 | N56S | 0.077 ± 0.078
3 | N56L | 0.07 ± 0.077
4 | N56K | 0.048 ± 0.17
5 | R46P | -1.01 ± 0.13
6 | R46V | -0.899 ± 0.22
7 | C45W | -0.431 ± 0.11
8 | C45F | -0.041 ± 0.19
9 | C45S | 0.065 ± 0.059
10 | C45A | 0.036 ± 0.071
11 | C45Y | 0.26 ± 0.39
12 | G25Q | -0.207 ± 0.11
13 | G25C | 0.131 ± 0.14
14 | G25K | -0.264 ± 0.19
15 | G25N | -0.593 ± 0.26
16 | G25S | 0.166 ± 0.052
17 | G25Y | -0.404 ± 0.29
18 | G25E | 0.127 ± 0.09
19 | A66T | -0.096 ± 0.096
20 | A66Y | -0.298 ± 0.12
21 | A71Q | -0.188 ± 0.16
22 | A71S | -0.183 ± 0.092
23 | A71K | -0.125 ± 0.17
24 | T51C | -0.077 ± 0.11

Row | Variant | abundance fitness
25 | T51Y | -0.567 ± 0.21
26 | T51F | -0.414 ± 0.11
27 | T51M | 0.077 ± 0.096
28 | T51R | -0.111 ± 0.067
29 | T51P | -1.08 ± 0.32
30 | Q65D | -0.186 ± 0.28
31 | Q65M | -0.235 ± 0.099
32 | Q65I | -0.502 ± 0.2
33 | Q65R | -0.37 ± 0.079
34 | Q65P | -0.528 ± 0.081
35 | Q65F | -0.369 ± 0.071
36 | Q65V | -0.324 ± 0.062
37 | Q65K | -0.074 ± 0.076
38 | E70F | -0.543 ± 0.46
39 | E70H | -0.666 ± 0.17
40 | E70R | -0.075 ± 0.053
41 | E70K | 0.076 ± 0.14
42 | E70L | -0.454 ± 0.083
43 | E70T | -0.231 ± 0.12
44 | E4Q | -0.134 ± 0.069
45 | E4T | -0.002 ± 0.074
46 | E4C | -0.273 ± 0.12
47 | E4L | -0.165 ± 0.062
48 | R9S | 0.018 ± 0.047

Row | Variant | abundance fitness
49 | R9C | 0.014 ± 0.15
50 | R9P | -0.782 ± 0.086
51 | R9G | -0.061 ± 0.046
52 | R9Q | 0.195 ± 0.088
53 | R9D | 0.307 ± 0.12
54 | R9M | 0.095 ± 0.13
55 | L50C | -0.029 ± 0.069
56 | L50S | 0.012 ± 0.066
57 | E8Y | 0.036 ± 0.073
58 | E8V | -0.121 ± 0.087
59 | E8I | 0 ± 0.1
60 | E8N | 0.049 ± 0.096
61 | E8K | 0.007 ± 0.11
62 | E8A | -0.232 ± 0.071
63 | E8H | -0.016 ± 0.085
64 | S42L | -0.152 ± 0.062
65 | S42Q | -0.084 ± 0.11
66 | S42F | -0.494 ± 0.12
67 | S42C | -0.325 ± 0.089
68 | N30P | -0.146 ± 0.054
69 | N30I | -0.766 ± 0.27
70 | N30R | -0.189 ± 0.059
71 | G18Q | -0.446 ± 0.088
72 | G18M | -0.76 ± 0.21

Row | Variant | abundance fitness
73 | G18P | -1.14 ± 0.19
74 | G18E | -0.322 ± 0.13
75 | G18I | -0.883 ± 0.13
76 | G18R | -0.372 ± 0.042
77 | G35Y | -0.763 ± 0.32
78 | G35K | -0.389 ± 0.13
79 | G35P | -0.77 ± 0.13
80 | G35W | -0.525 ± 0.23
81 | G35T | -0.365 ± 0.12
82 | G35N | -0.116 ± 0.24
83 | Q21Y | -0.194 ± 0.1
84 | Q21I | 0.151 ± 0.3
85 | Q21E | -0.258 ± 0.1
86 | Q21F | -0.426 ± 0.2
87 | Q21K | -0.361 ± 0.19
88 | Q21H | 0.184 ± 0.27
89 | Q21G | -0.241 ± 0.057
90 | V36F | -0.176 ± 0.18
91 | V36A | -0.18 ± 0.085
92 | V36D | -0.278 ± 0.21
93 | V36T | -0.417 ± 0.09
94 | V36Y | -0.047 ± 0.25
95 | L3D | -0.658 ± 0.29
96 | L3Y | -0.213 ± 0.11

Row | Variant | abundance fitness
97 | L3M | 0.064 ± 0.089
98 | L3N | -0.382 ± 0.19
99 | L3E | -0.573 ± 0.091
100 | L3T | -0.327 ± 0.096
101 | S26Y | -0.05 ± 0.12
102 | S26L | 0.061 ± 0.054
103 | S26H | -0.059 ± 0.094
104 | S26Q | -0.07 ± 0.095
105 | S26A | 0.176 ± 0.081
106 | S26W | 0.008 ± 0.093
107 | S26G | -0.164 ± 0.069
108 | S26F | -0.032 ± 0.12
109 | S26V | -0.234 ± 0.084
110 | E48R | -0.463 ± 0.071
111 | E48W | -1.09 ± 0.24
112 | E48S | -0.644 ± 0.11
113 | E48G | -0.594 ± 0.12
114 | N55K | -0.016 ± 0.15
115 | N55M | -0.253 ± 0.15
116 | N55E | -0.184 ± 0.39
117 | A22F | -0.031 ± 0.17
118 | A22D | -0.262 ± 0.15
119 | A22W | -0.302 ± 0.077
120 | L60H | -0.944 ± 0.47

Row | Variant | abundance fitness
121 | L60Y | -0.081 ± 0.31
122 | K32S | -0.072 ± 0.065
123 | K32W | -0.188 ± 0.082
124 | K32P | -0.33 ± 0.093
125 | K32R | -0.084 ± 0.047
126 | K32G | -0.24 ± 0.077
127 | K32H | -0.178 ± 0.17
128 | A59L | -0.091 ± 0.049
129 | A59Y | -0.026 ± 0.095
130 | A59H | -0.249 ± 0.11
131 | A59K | -0.057 ± 0.14
132 | T43H | -0.274 ± 0.17
133 | T43L | -0.053 ± 0.051
134 | T43Q | -0.452 ± 0.17
135 | T43A | -0.271 ± 0.074
136 | A27Q | 0.068 ± 0.069
137 | A27T | -0.434 ± 0.11
138 | A27L | -0.302 ± 0.034
139 | A27W | -0.174 ± 0.082
140 | A27D | -0.123 ± 0.2
141 | A27R | -0.178 ± 0.045
142 | A27P | -0.941 ± 0.12
143 | L39D | -0.413 ± 0.46
144 | L39F | -0.181 ± 0.14

Row | Variant | abundance fitness
145 | L39Q | -0.732 ± 0.17
146 | L39P | -0.258 ± 0.075
147 | L39G | -0.499 ± 0.039
148 | I58M | -0.118 ± 0.12
149 | I58F | -0.287 ± 0.11
150 | I58E | -0.258 ± 0.12
151 | I58S | -0.017 ± 0.057
152 | I58H | -0.237 ± 0.23
153 | I58A | -0.139 ± 0.079
154 | I58T | -0.235 ± 0.14
155 | I58N | -0.077 ± 0.28
156 | I58D | -0.615 ± 0.27
157 | D23Y | -0.299 ± 0.38
158 | D23R | -0.243 ± 0.045
159 | D23V | -0.403 ± 0.087
160 | D23M | -0.189 ± 0.17
161 | D23C | -0.678 ± 0.16
162 | D23H | -0.127 ± 0.1
163 | A7E | -0.443 ± 0.23
164 | A7P | -0.768 ± 0.063
165 | A7D | -0.769 ± 0.35
166 | A7L | -0.936 ± 0.19
167 | A7Y | -0.537 ± 0.13
